Assay results from the nanobody polyreactivity screen of Harvey et al. (2022).

Assay: yeast display, Sf9 membrane polyspecificity reagent, FACS + sequencing; frameworks hold sequencing errors
Summary of the method: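 Synthetic nanobody libraries on Saccharomyces cerevisiae BJ5465 were galactose-induced for 36–48 hours, stained 1 hour at 4 °C with 10% biotinylated, detergent-solubilized Sf9 membrane reagent and enriched on streptavidin microbeads. FACS then separated cells into low and high (top ~1%) gates by anti-HA (expression) and streptavidin (reagent binding) fluorescence. Genes were colony-PCR amplified, MiSeq 2 × 250 sequenced and CDR-length filtered. A clone's polyreactivity label is that of its gate of origin.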

Sequence	polyreactivity (PSR sort gate)
QVQLVESGGGLVQAGGSLRLSCAASGFIFYRYAMGWYRPAPGKVRELVAAINWSGGGTYYADSVKGRFTISRDHAKNTVYLQKNSRKPEETAVYYCAAGRSFRGSYWYEYCGQGTQVTVSS	high polyreactivity
QVQLVESGGGLVQAGGSLRLSCAASGFIFYRYAMGWYRQAPGKEREFVAAISRSGGSTYYADSVKGRFTISRDNAKNTVYLQKNSLKPEDTAVYYCNTYQHGYYVAEYDYWGQGTQVTVSS	high polyreactivity
QVQLVESGGGLVQAGGSLRLSCAASGFIFYRYAMGWYRQAPGKERELVAAIRGGGSTYYADSVKGRFTISRDNAKTTVYLQMNSLKPEDTAVYYCNAVYGVRPNRYHYDYWGQGTQVTVSS	low polyreactivity
QVQLVESGGGLVQAGGSLRLSCAASGFIFYRYAMGWYRQAPGKERELVSAISYRGGSTYYADSVKGRFTISRDNAKNTVYLQMNSLKPEDTAVYYCAASLRYYGLEMDYWGQGTQVTVSS	high polyreactivity
QVQLVESGGGLVQAGGSLRLSCAASGFIFYRYAMGWYRQAPGKESELVAAISWGGGSTTYYADSVKGRFTISRDNAKNTVYLQMNSLKPEDTAVYYCAAYIVKGYGSEYYYWGQGTQVTVSS	low polyreactivity
QVQLVESGGGLVQAGGSLRLSCAASGFIFYRYAMGWYRQAPGNERELVAAISRSGGSTYYADSVKGRFTISRDNAKNTVYLQMNSLKPEDTAVYYCATPGQRKLYLVNYLGQGTQVTVSS	low polyreactivity
QVQLVESGGGLVQAGGSLRLSCAASGFIFYRYAMVWYRQAPGKEREFVARISANGGRTYYADSVKGRFTISRDNAKNTVYLQMNSLKPEDTAVYYCNAGRYATPYNYWGQGTQVTVSS	high polyreactivity
QVQLVESGGGLVQAGGSLRLSCAASGFIFYRYTMGWSRQAPGKERELVAGSSSRGTRTYYADSVKGRFTISRDNAKNTVYLQMNSLKPEDTAVYYCAKVDGSKRYNYWGQGTQVTVSS	high polyreactivity
QVQLVESGGGLVQAGGSLRLSCAASGFIFYRYTMGWYRQAPGKERELVASISSGGSTNYADSVKGRFTISRDNAKNTVYLQMNSLKPEDTAVYYCAASRFRWVQRYDYWGQGTQVTVSS	high polyreactivity
QVQLVESGGGLVQAGGSLRLSCAASGFIFYSNAMGWYRQEPGKERELLADINRGGTSTYYADSVKGRFTISRDNAKNTVYLQMNSLKPEDTAVYYCNAGLRYRSRLWNIYWYDYWGQGTQVTVSS	high polyreactivity
QVQLVESGGGLVQAGGSLRLSCAASGFIFYSYAMGWYRQAPGKERELVAAISSSGRTNYADSVKGRFTISRDNAKNTVYLQMNSLKPEDTAVYYCNVVRWHGYRVGRYDYWGQGSQVTVSS	high polyreactivity
QVQLVESGGGLVQAGGSLRLSCAASGFIFYSYDMGWYRQAPGKERELVAAIDSRGVNTYFADSVKGRFTISRDNAKNTVYLQMNSLKPEDTAVYYCNVDAITWWDWEDFDSWGQGTQVTVSS	low polyreactivity
QVQLVESGGGLVQAGGSLRLSCAASGFIFYTNAMAWYRQAPGNERQLVATLTTSGGRTYYADSVKGRFTISRDNAKNSVYLQMNSLKPEDTAVYYCATRYVVIEYDYWGQGTEVTVSS	low polyreactivity
QVQLVESGGGLVQAGGSLRLSCAASGFIFYTYAMGWYRQAPGKERELVAGINSGGDTNYADSVKGRFTISRDNAKNTVYLQINSLKPEDTAVYYCAATSYVHKYYGYFGAIKYEYWGHGTQVTVSS	low polyreactivity
QVQLVESGGGLVQAGGSLRLSCAASGFIFYYAMGWYRQAPGKERELVAAISSGSSTYADSVKGRFTISRDNAKNTVYLQMNSLKPEDTAVYYCATRYSSWYSNRDYDYWGQGTQVTVSS	low polyreactivity
QVQLVESGGGLVQAGGSLRLSCAASGFIFYYYAMGWYRQAPGKERELVAAITGSGGNTYYADSVKGRFTISRDYAKNTVYFQMNSLKPEDTAFYYCNTGYDWGGDYWGQGTQVTVSS	high polyreactivity
QVQLVESGGGLVQAGGSLRLSCAASGFIFYYYAMGWYSQAPGKERELVARISRGGSTYYADSVKGRFTISRDNAKNTVYLQMNSLKPEDTAVYYCAKVSIARIKTRYNYWGQGTQVTVSS	high polyreactivity
QVQLVESGGGLVQAGGSLRLSCAASGFIFYYYDMGWYRQAPGKERELVAAISFDGDSTYYADSVKGRFTISRDNAKNTVYLQMNSLKPEDTAVYYCAARDYRYRYGYWGQGTQVTVSS	high polyreactivity
QVQLVESGGGLVQAGGSLRLSCAASGFIIDPNAMGWYSQAPGKERDLVAAISSSGGRTYYADSVKGRFTISRDNAKNTVYFQLNSLKPEDTAVYYCATDTSVQGQEYDYWGKGTQVTVSS	low polyreactivity
QVQLVESGGGLVQAGGSLRLSCAASGFIIGYYAMGWYRQAPGKERELVASIRRGGSTYYADSVKGRFTISRDNAKNTVYLQMNSLKPEDTAVYYCAVPYSRFSAFRRWVKYDYWGQGTQVTVSS	high polyreactivity
QVQLVESGGGLVQAGGSLRLSCAASGFIIIGYVMGWYRQAPGKERELVAAITSSGGSTYYEDSVKGRFTISRDNAKNTVYLQMNSLKPEDTAVYYCAAEYYLLWSGMEYWGQGTQVTVSS	low polyreactivity
